Measurements from paper PMC3362647.

System: GST-p180-Lys (p180 lysine-rich region)
Assay: EMSA
Details: PBS with 10 ug/ml denatured yeast tRNA, room temperature, 20 min; native 10% PAGE (19:1) in TBE; pH not stated

## human insulin SSCR RNA
  Kd: 800 nM
